Data from patent EP2985295A1 (Calypso Biotech SA, dated 2016).
Numbering of substitutions follows the chain as printed.

B1: G03-VH-GL / G06-VL-GL1 (antibody, V domains shown)
VH: EVQLVQSGAEVKKPGASVKVSCKASGYTFTSYGISWVRQAPGQGLEWMGWISAYNGNTNYAQKLQGRVTMTTDTSTSTAYMELRSLRSDDTAVYYCARDYYGMDVWGQGTTVTVSS
VL: QAVLTQPPSASGTPGQRVTISCSGSTFNIGSNTVNWYQQLPGTAPKLLIYSDSHRPSGVPDRFSGSNSWNTASLAISGLQSEDEADYYCQAWDSSAVVFGGGTKVTVLG
B2: G03-VH-GL-V1-V9 / G06-VL-GL1 (antibody, V domains shown)
VH: B1 VH with W50Y, G56A
VL: B1 VL
B3: G03-VH-GL-V1 / G06-VL-GL1 (antibody, V domains shown)
VH: B1 VH with W50Y
VL: B1 VL

What follows are binders tested against rat proMMP9 (rat, UniProt P50282 20-708) (assay: cell-based or functional assay).
Chain of rat proMMP9 (P50282 20-708): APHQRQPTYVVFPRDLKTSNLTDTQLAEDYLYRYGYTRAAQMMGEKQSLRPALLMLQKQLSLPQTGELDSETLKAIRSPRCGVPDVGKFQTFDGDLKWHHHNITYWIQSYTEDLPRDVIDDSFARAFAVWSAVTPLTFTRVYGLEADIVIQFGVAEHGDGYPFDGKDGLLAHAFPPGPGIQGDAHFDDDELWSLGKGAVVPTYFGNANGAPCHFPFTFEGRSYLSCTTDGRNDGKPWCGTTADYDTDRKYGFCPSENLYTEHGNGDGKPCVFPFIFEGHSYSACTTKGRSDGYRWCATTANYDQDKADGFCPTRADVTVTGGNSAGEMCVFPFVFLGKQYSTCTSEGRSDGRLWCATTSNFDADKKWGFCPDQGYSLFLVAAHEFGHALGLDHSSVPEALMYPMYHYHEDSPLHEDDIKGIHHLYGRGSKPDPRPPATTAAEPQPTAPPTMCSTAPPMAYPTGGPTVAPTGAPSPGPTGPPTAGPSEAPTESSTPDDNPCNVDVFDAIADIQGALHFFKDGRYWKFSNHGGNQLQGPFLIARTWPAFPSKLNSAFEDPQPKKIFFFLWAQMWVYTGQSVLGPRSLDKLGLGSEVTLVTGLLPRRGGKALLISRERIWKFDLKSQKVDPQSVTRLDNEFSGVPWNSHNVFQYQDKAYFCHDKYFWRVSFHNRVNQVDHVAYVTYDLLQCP

Row | Efficiency, neutralization of processing of rat MMP9 and/or its catalytic activity on gelatin (MMP3/MMP9 assay) [%] | IC50 (nM), neutralization of processing of rat MMP9 and/or its catalytic activity on gelatin (MMP3/MMP9 assay) [nM] | Binder
1 | 100 | 64.7 | B1
2 | 100 | 93.6 | B2
3 | 100 | 19 | B3

These binders were tested against Human MMP9 (i.e. activated MMP9) (human, UniProt P14780 107-707) (assay: cell-based or functional assay).
Chain of Human MMP9 (i.e. activated MMP9) (P14780 107-707): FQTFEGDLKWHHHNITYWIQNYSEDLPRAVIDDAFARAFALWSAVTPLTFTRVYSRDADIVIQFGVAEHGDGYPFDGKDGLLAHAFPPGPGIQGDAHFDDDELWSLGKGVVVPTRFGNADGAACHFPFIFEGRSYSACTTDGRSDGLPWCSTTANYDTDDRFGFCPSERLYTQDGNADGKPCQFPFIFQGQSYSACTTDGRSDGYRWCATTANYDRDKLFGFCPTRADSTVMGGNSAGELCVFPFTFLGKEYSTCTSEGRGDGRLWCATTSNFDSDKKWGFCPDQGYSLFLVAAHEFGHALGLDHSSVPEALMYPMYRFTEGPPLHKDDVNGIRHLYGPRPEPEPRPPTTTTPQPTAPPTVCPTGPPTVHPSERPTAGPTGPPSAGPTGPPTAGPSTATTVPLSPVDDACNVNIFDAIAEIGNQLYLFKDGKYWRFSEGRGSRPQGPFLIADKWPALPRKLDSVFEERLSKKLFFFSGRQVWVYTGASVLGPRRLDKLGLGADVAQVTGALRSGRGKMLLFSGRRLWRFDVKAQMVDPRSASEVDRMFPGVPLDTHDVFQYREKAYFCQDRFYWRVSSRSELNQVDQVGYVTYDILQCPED

Row | Efficiency, neutralization of catalytic activity on DQ-gelatin (MMP9 assay) [%] | IC50 (nM), neutralization of catalytic activity on DQ-gelatin (MMP9 assay) [nM] | Binder
4 | 50 | 0.13 | B1
5 | 50 | 0.11 | B2
6 | 50 | 0.06 | B3

What follows are binders tested against Human proMMP9 (human, UniProt P14780 20-707) (assay: cell-based or functional assay).
Chain of Human proMMP9 (P14780 20-707): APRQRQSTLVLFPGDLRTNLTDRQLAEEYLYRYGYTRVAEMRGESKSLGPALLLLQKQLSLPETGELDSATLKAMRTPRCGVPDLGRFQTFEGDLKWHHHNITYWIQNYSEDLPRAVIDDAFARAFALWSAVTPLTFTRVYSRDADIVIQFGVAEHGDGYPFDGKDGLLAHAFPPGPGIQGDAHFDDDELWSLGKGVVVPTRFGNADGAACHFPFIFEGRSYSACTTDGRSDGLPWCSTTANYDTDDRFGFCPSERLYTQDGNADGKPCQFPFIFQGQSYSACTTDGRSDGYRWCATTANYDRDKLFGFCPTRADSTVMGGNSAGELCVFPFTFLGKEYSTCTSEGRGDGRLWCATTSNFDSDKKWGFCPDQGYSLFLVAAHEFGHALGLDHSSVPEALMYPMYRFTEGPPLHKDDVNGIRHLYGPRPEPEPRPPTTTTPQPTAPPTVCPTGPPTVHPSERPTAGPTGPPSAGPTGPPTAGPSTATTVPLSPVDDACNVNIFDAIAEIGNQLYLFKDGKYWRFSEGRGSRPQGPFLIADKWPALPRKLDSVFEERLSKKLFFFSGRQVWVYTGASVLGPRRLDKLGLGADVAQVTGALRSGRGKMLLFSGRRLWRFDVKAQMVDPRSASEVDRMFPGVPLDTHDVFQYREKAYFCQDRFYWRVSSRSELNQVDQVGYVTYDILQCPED

Row | Efficiency, neutralization of proMMP9 processing and/or downstream catalytic activity on DQ-gelatin (MMP3/MMP9 assay) [%] | IC50 (nM), neutralization of proMMP9 processing and/or downstream catalytic activity on DQ-gelatin (MMP3/MMP9 assay) [nM] | Binder
7 | 100 | 0.21 | B1
8 | 100 | 0.21 | B2
9 | 100 | 0.19 | B3

The binders below were run against Cyno proMMP9 (Cynomologus monkey) (assay: cell-based or functional assay).

Row | Efficiency, neutralization of processing of cyno MMP9 and/or its catalytic activity on gelatin (MMP3/MMP9 assay) [%] | IC50 (nM), neutralization of processing of cyno MMP9 and/or its catalytic activity on gelatin (MMP3/MMP9 assay) [nM] | Binder
10 | 100 | 0.04 | B1
11 | 100 | 0.14 | B2
12 | 100 | 0.03 | B3

These binders were tested against mouse proMMP9 (mouse, UniProt P41245 20-730) (assay: cell-based or functional assay).
Chain of mouse proMMP9 (P41245 20-730): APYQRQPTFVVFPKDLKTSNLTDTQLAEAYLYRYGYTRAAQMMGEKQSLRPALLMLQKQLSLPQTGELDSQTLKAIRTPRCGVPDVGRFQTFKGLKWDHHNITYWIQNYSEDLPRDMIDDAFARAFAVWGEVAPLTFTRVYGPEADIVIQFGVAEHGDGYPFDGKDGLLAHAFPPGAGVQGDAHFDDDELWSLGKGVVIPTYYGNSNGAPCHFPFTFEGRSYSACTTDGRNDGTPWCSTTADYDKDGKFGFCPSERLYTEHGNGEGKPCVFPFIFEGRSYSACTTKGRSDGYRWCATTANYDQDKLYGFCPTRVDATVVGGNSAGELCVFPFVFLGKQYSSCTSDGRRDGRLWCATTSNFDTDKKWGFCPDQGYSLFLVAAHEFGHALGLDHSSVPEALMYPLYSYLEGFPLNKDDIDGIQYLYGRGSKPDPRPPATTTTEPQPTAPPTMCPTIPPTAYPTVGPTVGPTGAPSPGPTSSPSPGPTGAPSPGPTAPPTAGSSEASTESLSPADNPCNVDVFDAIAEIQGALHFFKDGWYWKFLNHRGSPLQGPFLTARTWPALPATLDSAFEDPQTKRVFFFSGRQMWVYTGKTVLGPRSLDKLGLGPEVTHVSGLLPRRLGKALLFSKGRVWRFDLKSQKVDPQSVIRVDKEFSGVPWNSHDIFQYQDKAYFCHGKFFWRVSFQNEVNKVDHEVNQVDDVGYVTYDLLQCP

Row | Efficiency, neutralization of processing of mouse MMP9 and/or its catalytic activity on gelatin (MMP3/MMP9 assay) [%] | IC50 (nM), neutralization of processing of mouse MMP9 and/or its catalytic activity on gelatin (MMP3/MMP9 assay) [nM] | Binder
13 | 30 | 151 | B1
14 | 25 | 12.6 | B2
15 | 25 | 16.4 | B3
